Test results as given in PMC4899871, “The T300A Crohn's disease risk polymorphism impairs function of the WD40 domain of ATG16L1” (Nature Communications, 2016).
Ends that are not written are not given here. Tds = not defined here

B1: TMEM59 263–281 peptide, wild type (19-amino acid peptide that includes the ATG16L1-binding motif) (peptide, UniProt Q9BXS4 263-281, looked up)
peptide: Tds-TAVEQYVPSEKLSIYGDLE
modifications: not fully specified; reading uncertain
notes: TMEM59 residues 263-281 of the intracellular domain; also called WT peptide; native peptide; source: synthetic peptide on microarray, bought: JPT (Germany)
B2: TMEM59 263–281 peptide E272A (peptide, UniProt Q9BXS4 263-281, looked up)
peptide: Tds-TAVEQYVPSAKLSIYGDLE
modifications: reading uncertain
notes: TMEM59 residues 263-281 with E272A; source: synthetic peptide on microarray, bought: JPT (Germany)

Legend:
Test in all cases: peptide or protein array; Peptides immobilised through the N-terminus (Tds spacer) on glass slides (JPT), nine spots per peptide; recombinant ligand 400 nM to 1 uM in PBS/0.05% Tween-20 with 5% BSA, 2 h at room temperature then overnight at 4 °C; detected with anti-HA plus anti-GST and Cy5-labelled secondary antibodies; background of a FLAG peptide subtracted
Conditions in all cases: both partners purified
[1] = biological target: T1, GST-HA-ATG16L1-320–607 (recombinant WD40 domain fused to GST and the HA tag) (human, UniProt Q676U5 320-607)
T1 construct: source: E. coli BL21 (pGEX), purified (GSH-agarose, eluted with reduced GSH)
T1 sequence (Q676U5 320-607): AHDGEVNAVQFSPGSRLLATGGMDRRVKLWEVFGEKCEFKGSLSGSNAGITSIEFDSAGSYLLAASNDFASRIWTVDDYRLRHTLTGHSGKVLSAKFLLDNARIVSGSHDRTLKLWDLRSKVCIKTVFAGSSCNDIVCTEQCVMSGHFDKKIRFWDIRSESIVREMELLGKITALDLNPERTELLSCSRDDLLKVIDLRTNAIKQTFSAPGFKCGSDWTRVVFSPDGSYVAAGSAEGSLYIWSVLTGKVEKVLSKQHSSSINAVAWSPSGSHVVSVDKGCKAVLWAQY

[2] = biological target: T2, GST-HA-ATG16L1-231–607 T300, purified from human cells (human, UniProt Q676U5 231-607)
T2 construct: source: HEK-293T, retrovirally transduced, purified (GSH-agarose)
T2 sequence (Q676U5 231-607): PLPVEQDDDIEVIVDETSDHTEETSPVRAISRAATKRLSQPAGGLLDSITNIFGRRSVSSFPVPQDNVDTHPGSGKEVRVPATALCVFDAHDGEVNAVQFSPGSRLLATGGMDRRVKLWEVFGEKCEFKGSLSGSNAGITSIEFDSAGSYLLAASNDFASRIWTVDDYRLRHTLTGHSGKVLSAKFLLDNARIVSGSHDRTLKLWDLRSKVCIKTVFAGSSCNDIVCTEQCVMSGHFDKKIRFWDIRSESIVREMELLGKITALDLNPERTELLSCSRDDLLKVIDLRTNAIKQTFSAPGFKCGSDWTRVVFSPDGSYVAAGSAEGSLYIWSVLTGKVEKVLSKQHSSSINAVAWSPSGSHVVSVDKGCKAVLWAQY

[3] = biological target: T3, GST-HA-ATG16L1-231–607 A300, purified from human cells (human, UniProt Q676U5 231-607, T300A)
T3 construct: source: HEK-293T, retrovirally transduced, purified (GSH-agarose)
T3 sequence (Q676U5 231-607 T300A): as the sequence (Q676U5 231-607) above, with T70A counted along it

Binder	binding result [1]	binding result [2]	binding result [3]
B1	binds	binds	binds
B2		binds	
